Source: US20220002427A1 (ENGMAB SARL, published 2022)
Where “and” joins values, the source holds several entries; their conditions need not be identical. Identical values can stand only once.

Columns and labels:
[1] = target: T1, human BCMA on cells (human, UniProt Q02223 1-184); test: flow cytometry on H929 multiple myeloma cells, PE anti-human Fc F(ab')2 detection; estimated EC50
T1 construct: whole, on cells; also called huBCMA on HEK cells; HEK-huBCMA cells
T1 sequence (looked up): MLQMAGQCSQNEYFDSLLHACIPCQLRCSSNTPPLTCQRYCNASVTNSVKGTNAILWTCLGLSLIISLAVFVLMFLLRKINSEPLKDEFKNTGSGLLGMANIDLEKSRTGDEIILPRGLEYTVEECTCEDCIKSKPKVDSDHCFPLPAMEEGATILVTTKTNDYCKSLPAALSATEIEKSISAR
Method: (§1) Briefly, cultured cells are harvested, counted and cell viability was evaluated using ViCell. Viable cells are then adjusted to 2×10⁶ cells per ml in BSA-containing FACS Stain Buffer (BD Biosciences). 100 μl of this cell suspension were further aliquoted per well into a round-bottom 96-well plate and incubated with 30 μl of the anti-BCMA antibodies or corresponding IgG control for 30 min at 4° c. All Anti-BCMA/anti-CD3 TCB antibodies (and TCB controls) were titrated and analyzed in final concentration range between 1-300 nM. Cells were then centrifuged (5 min, 350×g), washed with 120 μl/well FACS Stain Buffer (BD Biosciences), resuspended and incubated for an additional 30 min at 4° C. with fluorochrome-conjugated PE-conjugated AffiniPure F(ab′)2 Fragment goat anti-human IgG Fc Fragment Specific (Jackson Immuno Research Lab; 109-116-170). Cells were then washed twice with Stain Buffer (BD Biosciences), fixed using 100 ul BD Fixation buffer per well (#BD Biosciences, 554655) at 4° C. for 20 min, resuspended in 120 μl FACS buffer and analyzed using BD FACS CantoII.

[2] = target: T1, human BCMA on cells; test: cell-based or functional assay
[3] = target: T1, human BCMA on cells; test: cell-based or functional assay; remark: listed apart in the source
[4] = target: T1, human BCMA on cells; test: cell-based or functional assay; remark: listed apart in the source
[5] = target: T1, human BCMA on cells; test: cell-based or functional assay; remark: listed apart in the source
[6] = target: T1, human BCMA on cells; test: cell-based or functional assay; remark: listed apart in the source
[7] = target: T1, human BCMA on cells; test: flow cytometry on L363 multiple myeloma cells, PE anti-human Fc F(ab')2 detection; estimated EC50
Method: as §1

[8] = target: T1, human BCMA on cells; test: flow cytometry on RPMI-8226 multiple myeloma cells, PE anti-human Fc F(ab')2 detection; asterisk: extrapolated by Prism
Method: as §1

[9] = target: T1, human BCMA on cells; test: cell-based or functional assay; remark: listed apart in the source
[10] = target: T1, human BCMA on cells; test: flow cytometry on RPMI-8226 multiple myeloma cells, PE anti-human Fc F(ab')2 detection; estimated EC50
Method: as §1

B1: 83A10-TCBcv (bispecific antibody, human IgG1, kappa, L234A L235A)
heavy 1: not shown
heavy 2: not shown
light 1: not shown
light 2: EVQLLESGGGLVQPGGSLRLSCAASGFTFSTYAMNWVRQAPGKGLEWVSRIRSKYNNYATYYADSVKGRFTISRDDSKNTLYLQMNSLRAEDTAVYYCVRHGNFGNSYVSWFAYWGQGTLVTVSSASVAAPSVFIFPPSDEQLKSGTASVVCLLNNFYPREAKVQWKVDNALQSGNSQESVTEQDSKDSTYSLSSTLTLSKADYEKHKVYACEVTHQGLSSPVTKSFNRGEC
notes: also called anti-BCMA/anti-CD3 T cell bispecific antibody 83A10-TCBcv
EC50 [1]: 12 nM and 1.73 µg/mL | Annexin-V positive JJN-3 cells (%) at 0.1 pM TCB, Experiment 2 [2]: 13.1% | Annexin-V positive JJN-3 cells (%) at 1 pM TCB, Experiment 1 [2]: 11.4% | Annexin-V positive JJN-3 cells (%) at 1 pM TCB, Experiment 2 [2]: 14.3% | Annexin-V positive JJN-3 cells (%) at 10 pM TCB, Experiment 1 [2]: 11.1% | Annexin-V positive JJN-3 cells (%) at 10 pM TCB, Experiment 2 [2]: 15.9% | Annexin-V positive JJN-3 cells (%) at 100 pM TCB, Experiment 1 [2]: 9.12% | Annexin-V positive JJN-3 cells (%) at 100 pM TCB, Experiment 2 [2]: 16.5% | Annexin-V positive JJN-3 cells (%) at 1000 pM TCB, Experiment 1 [2]: 10.2% | Annexin-V positive JJN-3 cells (%) at 1000 pM TCB, Experiment 2 [2]: 17.5% | Annexin-V positive JJN-3 cells (%) at 10000 pM TCB, Experiment 1 [2]: 16.8% | Annexin-V positive JJN-3 cells (%) at 10000 pM TCB, Experiment 2 [2]: 22.9% | Lysis of JJN-3 cells (%) at 0.1 pM TCB, Experiment 2 [3]: 22.3% | Lysis of JJN-3 cells (%) at 1 pM TCB, Experiment 1 [3]: 24.4% | Lysis of JJN-3 cells (%) at 1 pM TCB, Experiment 2 [3]: -1.88% | Lysis of JJN-3 cells (%) at 10 pM TCB, Experiment 1 [3]: 41.9% | Lysis of JJN-3 cells (%) at 10 pM TCB, Experiment 2 [3]: 39.6% | Lysis of JJN-3 cells (%) at 100 pM TCB, Experiment 1 [3]: 18.4% | Lysis of JJN-3 cells (%) at 100 pM TCB, Experiment 2 [3]: 20.1% | Lysis of JJN-3 cells (%) at 1000 pM TCB, Experiment 1 [3]: 26.7% | Lysis of JJN-3 cells (%) at 1000 pM TCB, Experiment 2 [3]: 25.3% | Lysis of JJN-3 cells (%) at 10000 pM TCB, Experiment 1 [3]: 70.3% | Lysis of JJN-3 cells (%) at 10000 pM TCB, Experiment 2 [3]: 51.2% | EC50 of redirected T-cell killing of L363 cells (LDH release), Donor 1 [4]: 16.8 pM | EC50 of redirected T-cell killing of L363 cells (LDH release), Donor 2 [4]: 47.8 pM | EC50 of redirected T-cell killing of L363 cells (LDH release), Donor 3 [4]: 28.4 pM | EC50 of redirected T-cell killing of L363 cells (LDH release), Donor 4 [4]: 12.6 pM | EC50 of redirected T-cell killing of L363 cells (LDH release), Donor 5 [4]: 39 pM | EC50 of Granzyme B secretion, PBMC plus RPMI-8226 cells (CBA) [5]: 0.34 nM | EC50 of IL-10 secretion, PBMC plus RPMI-8226 cells (CBA) [5]: 0.3 nM | EC50 of TNF-α secretion, PBMC plus RPMI-8226 cells (CBA) [5]: 0.52 nM | EC50 of redirected T-cell killing of RPMI-8226 cells (LDH release), Donor 2 [6]: 620 pM | EC50 of redirected T-cell killing of RPMI-8226 cells (LDH release), Donor 3 [6]: 229 pM | EC50 of redirected T-cell killing of RPMI-8226 cells (LDH release), Donor 4 [6]: 35 pM | EC50 of redirected T-cell killing of RPMI-8226 cells (LDH release), Donor 5 [6]: 64.9 pM | EC50 [7]: 17.4 nM and 2.51 µg/mL | EC50 [8]: > 300 nM and ~27200 µg/mL | EC50 of redirected T-cell killing of H929 cells (LDH release), Donor 1 [9]: 3.9 pM | EC50 of redirected T-cell killing of H929 cells (LDH release), Donor 3 [9]: 8.5 pM | EC50 of redirected T-cell killing of H929 cells (LDH release), Donor 4 [9]: 5 pM | EC50 of redirected T-cell killing of H929 cells (LDH release), Donor 5 [9]: 4.3 pM | EC50 of redirected T-cell killing of H929 cells (LDH release), Donor 6 [9]: 1.5 pM

B2: 42-TCBcv (bispecific antibody, human IgG1, kappa, L234A L235A)
heavy 1: not shown
heavy 2: EVQLLESGGGLVQPGGSLRLSCAASGFTFSDNAMGWVRQAPGKGLEWVSAISGPGSSTYYADSVKGRFTISRDNSKNTLYLQMNSLRAEDTAVYYCAKVLGWFDYWGQGTLVTVSSASTKGPSVFPLAPSSKSTSGGTAALGCLVEDYFPEPVTVSWNSGALTSGVHTFPAVLQSSGLYSLSSVVTVPSSSLGTQTYICNVNHKPSNTKVDEKVEPKSCDKTHTCPPCPAPEAAGGPSVFLFPPKPKDTLMISRTPEVTCVVVDVSHEDPEVKFNWYVDGVEVHNAKTKPREEQYNSTYRVVSVLTVLHQDWLNGKEYKCKVSNKALGAPIEKTISKAKGQPREPQVCTLPPSRDELTKNQVSLSCAVKGFYPSDIAVEWESNGQPENNYKTTPPVLDSDGSFFLVSKLTVDKSRWQQGNVFSCSVMHEALHNHYTQKSLSLSPGK
light 1: EIVLTQSPGTLSLSPGERATLSCRASQSVSDEYLSWYQQKPGQAPRLLIHSASTRATGIPDRFSGSGSGTDFTLAISRLEPEDFAVYYCQQYGYPPDFTFGQGTKVEIKRTVAAPSVFIFPPSDRKLKSGTASVVCLLNNFYPREAKVQWKVDNALQSGNSQESVTEQDSKDSTYSLSSTLTLSKADYEKHKVYACEVTHQGLSSPVTKSFNRGEC
light 2: EVQLLESGGGLVQPGGSLRLSCAASGFTFSTYAMNWVRQAPGKGLEWVSRIRSKYNNYATYYADSVKGRFTISRDDSKNTLYLQMNSLRAEDTAVYYCVRHGNFGNSYVSWFAYWGQGTLVTVSSASVAAPSVFIFPPSDEQLKSGTASVVCLLNNFYPREAKVQWKVDNALQSGNSQESVTEQDSKDSTYSLSSTLTLSKADYEKHKVYACEVTHQGLSSPVTKSFNRGEC
notes: also called 42-TCVcv; anti-BCMA/anti-CD3 T cell bispecific antibody of Mab42
EC50 [1]: 13.6 nM and 1.96 µg/mL | Annexin-V positive JJN-3 cells (%) at 0.1 pM TCB, Experiment 2 [2]: 12.8% | Annexin-V positive JJN-3 cells (%) at 1 pM TCB, Experiment 1 [2]: 11.9% | Annexin-V positive JJN-3 cells (%) at 1 pM TCB, Experiment 2 [2]: 13.5% | Annexin-V positive JJN-3 cells (%) at 10 pM TCB, Experiment 1 [2]: 12.3% | Annexin-V positive JJN-3 cells (%) at 10 pM TCB, Experiment 2 [2]: 13.6% | Annexin-V positive JJN-3 cells (%) at 100 pM TCB, Experiment 1 [2]: 8.62% | Annexin-V positive JJN-3 cells (%) at 100 pM TCB, Experiment 2 [2]: 14.4% | Annexin-V positive JJN-3 cells (%) at 1000 pM TCB, Experiment 1 [2]: 16.8% | Annexin-V positive JJN-3 cells (%) at 1000 pM TCB, Experiment 2 [2]: 21.7% | Annexin-V positive JJN-3 cells (%) at 10000 pM TCB, Experiment 1 [2]: 24.8% | Annexin-V positive JJN-3 cells (%) at 10000 pM TCB, Experiment 2 [2]: 26.9% | Lysis of JJN-3 cells (%) at 0.1 pM TCB, Experiment 2 [3]: 17.6% | Lysis of JJN-3 cells (%) at 1 pM TCB, Experiment 1 [3]: 40.3% | Lysis of JJN-3 cells (%) at 1 pM TCB, Experiment 2 [3]: 34.9% | Lysis of JJN-3 cells (%) at 10 pM TCB, Experiment 1 [3]: 39% | Lysis of JJN-3 cells (%) at 10 pM TCB, Experiment 2 [3]: 39.4% | Lysis of JJN-3 cells (%) at 100 pM TCB, Experiment 1 [3]: 41.9% | Lysis of JJN-3 cells (%) at 100 pM TCB, Experiment 2 [3]: 55.3% | Lysis of JJN-3 cells (%) at 1000 pM TCB, Experiment 1 [3]: 84% | Lysis of JJN-3 cells (%) at 1000 pM TCB, Experiment 2 [3]: 81.1% | Lysis of JJN-3 cells (%) at 10000 pM TCB, Experiment 1 [3]: 92.9% | Lysis of JJN-3 cells (%) at 10000 pM TCB, Experiment 2 [3]: 90.4% | EC50 of redirected T-cell killing of L363 cells (LDH release), Donor 1 [4]: 15.5 pM | EC50 of redirected T-cell killing of L363 cells (LDH release), Donor 2 [4]: 16.7 pM | EC50 of redirected T-cell killing of L363 cells (LDH release), Donor 3 [4]: 5.2 pM | EC50 of redirected T-cell killing of L363 cells (LDH release), Donor 4 [4]: 2.2 pM | EC50 of redirected T-cell killing of L363 cells (LDH release), Donor 5 [4]: 10.6 pM | EC50 of redirected T-cell killing of RPMI-8226 cells (LDH release), Donor 2 [6]: 383 pM | EC50 of redirected T-cell killing of RPMI-8226 cells (LDH release), Donor 3 [6]: 18.7 pM | EC50 of redirected T-cell killing of RPMI-8226 cells (LDH release), Donor 4 [6]: 3.5 pM | EC50 of redirected T-cell killing of RPMI-8226 cells (LDH release), Donor 5 [6]: 1.5 pM | EC50 [7]: 3.8 nM and 0.553 µg/mL | EC50 [10]: 13.2 nM and 1.91 µg/mL | EC50 of redirected T-cell killing of H929 cells (LDH release), Donor 1 [9]: 9.7 pM | EC50 of redirected T-cell killing of H929 cells (LDH release), Donor 3 [9]: 11.7 pM | EC50 of redirected T-cell killing of H929 cells (LDH release), Donor 4 [9]: 7.2 pM | EC50 of redirected T-cell killing of H929 cells (LDH release), Donor 5 [9]: 6.8 pM
